Patent US20240279309A1 (Molecular Partners, published 2024)

B1: SMA095 (SEQ ID NO: 101) (designed binder)
chain: MRGSHHHHHHGSDLGKKLLEAARAGQDDEVRELLKAGADVNAKDYFSHTPLHLAARNGHLKIVEVLLKAGADVNAKDFAGKTPLHLAAADGHLEIVEVLLKAGADVNAQDIFGKTPADIAADAGHEDIAEVLQKAAGSPTPTPTTPTPTPTTPTPTPTGSDLGEKLLVAALYGQDDEVRELLKAGADVNAKDQWGLTPLHKAALQGHLEIVEVLLKAGADVNAKDERGHTPLHWAARFGHLEIVEVLLKAGADVNAQDQKGYTPADLAALWGHEDIAEVLQKAAGSPTPTPTTPTPTPTTPTPTPTGSDLGKKLLQAARAGQLDEVRELLKAGADVNAKDTWGFTPLHIAAESGHLEIVEVLLKAGADVNAKDVQGRTPLHIAAHSGHLEIVEVLLKAGADVNAKDFRGWTPLHLAAWSGHLEIVEILLKAGADVNAQDKSGKTPADLAARAGHQDIAEVLQKAAGSPTPTPTTPTPTPTTPTPTPTGSDLGKKLLEAARAGQDDEVRELLKAGADVNAKDYFSHTPLHLAARNGHLKIVEVLLKAGADVNAKDFAGKTPLHLAAADGHLEIVEVLLKAGADVNAQDIFGKTPADIAADAGHEDIAEVLQKAA
B2: SMA091 (SEQ ID NO: 103) (designed binder)
chain: MRGSHHHHHHGSDLGKKLLEAARAGQDDEVRELLKAGADVNAKDYFSHTPLHLAARNGHLKIVEVLLKAGADVNAKDFAGKTPLHLAAADGHLEIVEVLLKAGADVNAQDIFGKTPADIAADAGHEDIAEVLQKAAGSPTPTPTTPTPTPTTPTPTPTGSDLGEKLLVAALYGQDDEVRELLKAGADVNAKDQWGLTPLHKAALQGHLEIVEVLLKAGADVNAKDERGHTPLHWAARFGHLEIVEVLLKAGADVNAQDQKGYTPADLAALWGHEDIAEVLQKAAGSPTPTPTTPTPTPTTPTPTPTGSDLGKKLLQAARAGQLDEVRELLKAGADVNAKDTWGFTPLHIAAESGHLEIVEVLLKAGADVNAKDVQGRTPLHIAAHSGHLEIVEVLLKAGADVNAKDFRGWTPLHLAAWSGHLEIVEILLKAGADVNAQDKSGKTPADLAARAGHQDIAEVLQKAAGSPTPTPTTPTPTPTTPTPTPTGSDLGKKLLQAARAGQLDEVRELLKAGADVNAKDTWGFTPLHIAAESGHLEIVEVLLKAGADVNAKDVQGRTPLHIAAHSGHLEIVEVLLKAGADVNAKDFRGWTPLHLAAWSGHLEIVEILLKAGADVNAQDKSGKTPADLAARAGHQDIAEVLQKAA
B3: SMA099 (SEQ ID NO: 104) (designed binder)
chain: MRGSHHHHHHGSDLGKKLLEAARAGQDDEVRELLKAGADVNAKDYFSHTPLHLAARNGHLKIVEVLLKAGADVNAKDFAGKTPLHLAAADGHLEIVEVLLKAGADVNAQDIFGKTPADIAADAGHEDIAEVLQKAAGSPTPTPTTPTPTPTTPTPTPTGSDLGEKLLVAALYGQDDEVRELLKAGADVNAKDQWGLTPLHKAALQGHLEIVEVLLKAGADVNAKDERGHTPLHWAARFGHLEIVEVLLKAGADVNAQDQKGYTPADLAALWGHEDIAEVLQKAAGSPTPTPTTPTPTPTTPTPTPTGSDLGKKLLQAARAGQLDEVRELLKAGADVNAKDTWGFTPLHIAAESGHLEIVEVLLKAGADVNAKDVQGRTPLHIAAHSGHLEIVEVLLKAGADVNAKDFRGWTPLHLAAWSGHLEIVEILLKAGADVNAQDKSGKTPADLAARAGHQDIAEVLQKAAGSPTPTPTTPTPTPTTPTPTPTGSDLGKKLLQAARAGQLDEVRELLKAGADVNAKDTWGFTPLHIAAESGHLEIVEVLLKAGADVNAKDVQGRTPLHIAAHSGHLEIVEVLLKAGADVNAKDFRGWTPLHLAAWSGHLEIVEILLKAGADVNAQDKSGKTPADLAARAGHQDIAEVLQKAAGSPTPTPTTPTPTPTTPTPTPTGSDLGKKLLEAARAGQDDEVRELLKAGADVNAKDYFSHTPLHLAARNGHLKIVEVLLKAGADVNAKDFAGKTPLHLAAADGHLEIVEVLLKAGADVNAQDIFGKTPADIAADAGHEDIAEVLQKAA
B4: SMA105 (SEQ ID NO: 106) (designed binder)
chain: MRGSHHHHHHGSDLGEKLLVAALYGQDDEVRELLKAGADVNAKDQWGLTPLHKAALQGHLEIVEVLLKAGADVNAKDERGHTPLHWAARFGHLEIVEVLLKAGADVNAQDQKGYTPADLAALWGHEDIAEVLQKAAGSPTPTPTTPTPTPTTPTPTPTGSDLGKKLLQAARAGQLDEVRELLKAGADVNAKDTWGFTPLHIAAESGHLEIVEVLLKAGADVNAKDVQGRTPLHIAAHSGHLEIVEVLLKAGADVNAKDFRGWTPLHLAAWSGHLEIVEILLKAGADVNAQDKSGKTPADLAARAGHQDIAEVLQKAAGSPTPTPTTPTPTPTTPTPTPTGSDLGKKLLQAARAGQLDEVRELLKAGADVNAKDTWGFTPLHIAAESGHLEIVEVLLKAGADVNAKDVQGRTPLHIAAHSGHLEIVEVLLKAGADVNAKDFRGWTPLHLAAWSGHLEIVEILLKAGADVNAQDKSGKTPADLAARAGHQDIAEVLQKAAGSPTPTPTTPTPTPTTPTPTPTGSDLGKKLLQAARAGQLDEVRELLKAGADVNAKDTWGFTPLHIAAESGHLEIVEVLLKAGADVNAKDVQGRTPLHIAAHSGHLEIVEVLLKAGADVNAKDFRGWTPLHLAAWSGHLEIVEILLKAGADVNAQDKSGKTPADLAARAGHQDIAEVLQKAA
B5: AS579 (SEQ ID NO: 105) (designed binder)
chain: MRGSHHHHHHGSDLGKKLLEAARAGQDDEVRELLKAGADVNAKDYFSHTPLHLAARNGHLKIVEVLLKAGADVNAKDFAGKTPLHLAAADGHLEIVEVLLKAGADVNAQDIFGKTPADIAADAGHEDIAEVLQKAAGSPTPTPTTPTPTPTTPTPTPTGSDLGKKLLEAARAGQDDEVRELLKAGADVNAKDYFSHTPLHLAARNGHLKIVEVLLKAGADVNAKDFAGKTPLHLAAADGHLEIVEVLLKAGADVNAQDIFGKTPADIAADAGHEDIAEVLQKAAGSPTPTPTTPTPTPTTPTPTPTGSDLGEKLLVAALYGQDDEVRELLKAGADVNAKDQWGLTPLHKAALQGHLEIVEVLLKAGADVNAKDERGHTPLHWAARFGHLEIVEVLLKAGADVNAQDQKGYTPADLAALWGHEDIAEVLQKAAGSPTPTPTTPTPTPTTPTPTPTGSDLGKKLLQAARAGQLDEVRELLKAGADVNAKDTWGFTPLHIAAESGHLEIVEVLLKAGADVNAKDVQGRTPLHIAAHSGHLEIVEVLLKAGADVNAKDFRGWTPLHLAAWSGHLEIVEILLKAGADVNAQDKSGKTPADLAARAGHQDIAEVLQKAAGSPTPTPTTPTPTPTTPTPTPTGSDLGKKLLQAARAGQLDEVRELLKAGADVNAKDTWGFTPLHIAAESGHLEIVEVLLKAGADVNAKDVQGRTPLHIAAHSGHLEIVEVLLKAGADVNAKDFRGWTPLHLAAWSGHLEIVEILLKAGADVNAQDKSGKTPADLAARAGHQDIAEVLQKAA
B6: SMA014 (SEQ ID NO: 99) (designed binder)
chain: MRGSHHHHHHGSDLGEKLLVAALYGQDDEVRELLKAGADVNAKDQWGLTPLHKAALQGHLEIVEVLLKAGADVNAKDERGHTPLHWAARFGHLEIVEVLLKAGADVNAQDQKGYTPADLAALWGHEDIAEVLQKAAGSPTPTPTTPTPTPTTPTPTPTGSDLGKKLLQAARAGQLDEVRELLKAGADVNAKDTWGFTPLHIAAESGHLEIVEVLLKAGADVNAKDVQGRTPLHIAAHSGHLEIVEVLLKAGADVNAKDFRGWTPLHLAAWSGHLEIVEILLKAGADVNAQDKSGKTPADLAARAGHQDIAEVLQKAA

The binders below were run against T1, CD40 receptor on cells (HEK293 reporter cells expressing CD40; primary human B cells) (human, UniProt P25942 21-277) (assay: cell-based or functional assay).
T1 sequence (P25942 21-277): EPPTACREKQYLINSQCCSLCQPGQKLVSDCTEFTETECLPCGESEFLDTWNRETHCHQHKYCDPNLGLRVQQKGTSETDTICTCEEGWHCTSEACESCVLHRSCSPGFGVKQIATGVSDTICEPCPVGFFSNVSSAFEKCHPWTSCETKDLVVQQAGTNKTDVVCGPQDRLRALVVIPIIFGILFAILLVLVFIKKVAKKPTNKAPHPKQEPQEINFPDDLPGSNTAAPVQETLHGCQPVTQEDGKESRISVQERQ

Binder	EC50 [nM], % CD86, human B cells with FAP-CHO, w/o HSA [nM]	EC50 [nM], MFI CD86, human B cells with FAP-CHO, w/o HSA [nM]	EC50 [nM], % CD86, human B cells with FAP-CHO, w HSA [nM]	EC50 [nM], MFI CD86, human B cells with FAP-CHO, w HSA [nM]
B1	89.8	288		
B2	0.76	3.93	2.98	8.05
B3	4.68	18.2	7.5	19.4
B4	0.11	0.33		
B5	2.27	10	10.2	23.1
B6	4.21	8.46	6.15	7.7

Target: T1, CD40 receptor on cells (HEK293 reporter …)
Assay: cell-based or functional assay
Remark: another data set of the same source

Binder	Efficacy [MFI at highest dose], MFI CD86, human B cells with FAP-CHO, w HSA [MFI]	Efficacy [MFI at highest dose], MFI CD86, human B cells with FAP-CHO, w/o HSA [MFI]	Efficacy at highest dose, % CD86, human B cells with FAP-CHO, w/o HSA [%]	Efficacy at highest dose, % CD86, human B cells with FAP-CHO, w HSA [%]
B1	232	773	28.7	
B2	2980	6230	78.2	75.6
B3	1720	4950	84.4	71.7
B4		5560	87.2	
B5	1780	4860	83	71.9
B6	2190	2440	48.4	47

Target: T1, CD40 receptor on cells (HEK293 reporter …)
Assay: cell-based or functional assay
Remark: another data set of the same source

Binder	Efficacy [MFI at highest dose], MFI CD86, human B cells with WT-CHO (no FAP), w HSA [MFI]	Efficacy [MFI at highest dose], MFI CD86, human B cells with WT-CHO (no FAP), w/o HSA [MFI]	Efficacy at highest dose, % CD86, human B cells with WT-CHO (no FAP), w HSA [%]	Efficacy at highest dose, % CD86, human B cells with WT-CHO (no FAP), w/o HSA [%]
B1	306	299	13.7	12.5
B2	296	290	43.1	47.8
B3	274	289	42.5	47.4
B4		672		69.2
B5	242	252	40.1	42
B6	310	294	13.3	13.2
